Measured values taken from patent US20020042368A1.

Biological target: α6β1. α6β4 (human) (UniProt P23229)
Experiment: flow cytometry on HMVEC-d; dis-Fc binding with 5-8 fold excess α6β1/α6β4 mAb (GoH3, 439-9B; competitor) vs control mAb

Sequence of ADAM-23dis-Fc (Fc fusion) (chain): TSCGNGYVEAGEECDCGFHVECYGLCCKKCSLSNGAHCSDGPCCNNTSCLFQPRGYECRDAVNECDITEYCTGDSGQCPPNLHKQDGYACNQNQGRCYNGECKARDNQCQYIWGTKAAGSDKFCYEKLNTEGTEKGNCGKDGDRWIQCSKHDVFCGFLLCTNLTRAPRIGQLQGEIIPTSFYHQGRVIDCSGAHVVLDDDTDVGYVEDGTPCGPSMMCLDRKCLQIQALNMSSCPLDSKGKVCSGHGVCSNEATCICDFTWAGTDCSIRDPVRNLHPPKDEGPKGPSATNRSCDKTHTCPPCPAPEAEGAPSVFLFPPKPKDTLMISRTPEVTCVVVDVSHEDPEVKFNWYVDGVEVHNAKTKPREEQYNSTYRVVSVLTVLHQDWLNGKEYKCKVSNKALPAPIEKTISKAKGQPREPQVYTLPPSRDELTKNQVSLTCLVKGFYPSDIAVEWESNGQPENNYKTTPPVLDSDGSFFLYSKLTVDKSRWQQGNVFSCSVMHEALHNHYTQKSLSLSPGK
Sequence of ADAM-22dis-Fc (Fc fusion) (chain): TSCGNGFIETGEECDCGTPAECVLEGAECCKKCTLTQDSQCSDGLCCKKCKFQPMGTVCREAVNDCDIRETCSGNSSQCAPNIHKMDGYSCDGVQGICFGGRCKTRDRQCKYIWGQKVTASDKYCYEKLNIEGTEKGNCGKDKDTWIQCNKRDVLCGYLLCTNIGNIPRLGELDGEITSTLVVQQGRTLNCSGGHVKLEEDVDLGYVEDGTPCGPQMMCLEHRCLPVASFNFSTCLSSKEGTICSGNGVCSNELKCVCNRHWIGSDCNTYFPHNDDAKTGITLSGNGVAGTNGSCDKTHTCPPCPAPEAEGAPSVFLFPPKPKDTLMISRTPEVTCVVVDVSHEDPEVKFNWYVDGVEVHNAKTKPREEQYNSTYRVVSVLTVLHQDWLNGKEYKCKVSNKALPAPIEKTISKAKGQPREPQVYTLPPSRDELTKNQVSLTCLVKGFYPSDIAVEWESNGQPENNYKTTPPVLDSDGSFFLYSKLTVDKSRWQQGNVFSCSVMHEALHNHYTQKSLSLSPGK

Substance | percent inhibition of binding [%]
ADAM-22dis-Fc (Fc fusion) | 32
ADAM-23dis-Fc (Fc fusion) | 31
